Patent US20260062456A1
Substitutions are numbered along the chain they refer to. Names may count otherwise.

B1: non-stack variant CD155 IgV-Fc control (P18S/S65W/S67A/L104Q/G111R) (Fc fusion)
chain: WPPPGTGDVVVQAPTQVSGFLGDSVTLPCYLQVPNMEVTHVSQLTWARHGESGSMAVFHQTQGPWYAESKRLEFVAARLGAELRNASLRMFGLRVEDEGNYTCQFVTFPQRSRSVDIWLRVLAAAEPKSSDKTHTCPPCPAPELLGGPSVFLFPPKPKDTLMISRTPEVTCVVVDVSHEDPEVKFNWYVDGVEVHNAKTKPCEEQYGSTYRCVSVLTVLHQDWLNGKEYKCKVSNKALPAPIEKTISKAKGQPREPQVYTLPPSREEMTKNQVSLTCLVKGFYPSDIAVEWESNGQPENNYKTTPPVLDSDGSFFLYSKLTVDKSRWQQGNVFSCSVMHEALHNHYTQKSLSLSPGK
B2: variant PD-L1 IgV-Fc A33D/S75P (IgV SEQ ID NO 285) (Fc fusion)
chain: FTVTVPKDLYVVEYGSNMTIECKFPVEKQLDLDALIVYWEMEDKNIIQFVHGEEDLKVQHSSYRQRARLLKDQLPLGNAALQITDVKLQDAGVYRCVISYGGADYKRITVKVNAAAAEPKSSDKTHTCPPCPAPELLGGPSVFLFPPKPKDTLMISRTPEVTCVVVDVSHEDPEVKFNWYVDGVEVHNAKTKPCEEQYGSTYRCVSVLTVLHQDWLNGKEYKCKVSNKALPAPIEKTISKAKGQPREPQVYTLPPSREEMTKNQVSLTCLVKGFYPSDIAVEWESNGQPENNYKTTPPVLDSDGSFFLYSKLTVDKSRWQQGNVFSCSVMHEALHNHYTQKSLSLSPGK
B3: variant PD-L1 IgV-Fc P6S, N45T, N78I, I83T (Fc fusion)
chain: B2 chain with P6S, D33A, N45T, P75S, N78I, I83T, V97M
B4: variant PD-L1 IgV-Fc A33D, S75P, D104G (Fc fusion)
chain: B2 chain with V97M, D104G
B5: variant PD-L1 IgV-Fc S75P, K106R (Fc fusion)
chain: B2 chain with D33A, V97M, K106R
B6: variant PD-L1 IgV-Fc A33D, N45T, N78I (Fc fusion)
chain: B2 chain with N45T, P75S, N78I, V97M
B7: variant PD-L1 IgV-Fc A33D, S75P (SEQ ID NO 285) (Fc fusion)
chain: B2 chain
B8: variant PD-L1 IgV-Fc I20L, N45T, V110M (Fc fusion)
chain: B2 chain with I20L, D33A, N45T, P75S, V97M, V110M
B9: variant PD-L1 IgV-Fc A33D, V50A (Fc fusion)
chain: B2 chain with V50A, P75S, V97M

Target: human PD-1 and human TIGIT both stably expressed on Jurkat cells (Jurkat/PD-1/TIGIT cells)
Experiment: flow cytometry, Jurkat/PD-1/TIGIT cells, 20 nM

Row | MFI at 20 nM | Binder
1 | 7910 MFI | B1

Target: human PD-1 stably expressed on Jurkat/IL-2 reporter cells (Jurkat/PD-1 cells) (human) (UniProt Q15116)
Experiment: flow cytometry, Jurkat/PD-1 cells

Chain of human PD-1 stably expressed on Jurkat/IL-2 reporter cells (Jurkat/PD-1 cells) (human) (Q15116 25-288 limits assumed): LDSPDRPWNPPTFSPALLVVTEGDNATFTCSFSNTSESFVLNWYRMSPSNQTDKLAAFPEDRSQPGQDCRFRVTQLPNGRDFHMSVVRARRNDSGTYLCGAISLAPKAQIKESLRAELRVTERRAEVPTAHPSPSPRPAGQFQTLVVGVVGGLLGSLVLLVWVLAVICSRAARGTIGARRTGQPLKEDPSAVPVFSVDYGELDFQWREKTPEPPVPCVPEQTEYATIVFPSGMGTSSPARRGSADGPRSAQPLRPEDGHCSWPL

Row | MFI at 50 nM | Binder
2 | 306 MFI | B2

Target: TIGIT/CD112R/PD1 (Jurkat/PD-1/TIGIT cells carrying PD-1, TIGIT and endogenous CD112R)
Experiment: flow cytometry, Jurkat/PD-1/TIGIT cells

Row | MFI at 33.3nM | Binder
3 | 961 MFI | B1

Target: human PD-1 stably expressed on Jurkat/IL-2 reporter cells (Jurkat/PD-1 cells) (human) (UniProt Q15116)
Experiment: flow cytometry, Jurkat/PD-1 cells, MFI vs wildtype PD-L1 IgV-Fc

Row | Fold increase over wildtype PD-L1 IgV-Fc | Binder
4 | 0.1 fold | B2

Target: PD-1 (human) (UniProt Q15116)
Experiment: cell-based or functional assay

Chain of PD-1 (human) (Q15116 25-288): as the sequence (Q15116 25-288 limits assumed) above

Row | Average Relative Luminescence Units | Fold increase in IL2 reporter signal | Binder
5 | 2250 RLU | 1.01 fold | B3
6 | 2170 RLU | 0.97 fold | B4
7 | 2130 RLU | 0.95 fold | B5
8 | 1970 RLU | 0.89 fold | B6
9 | 2170 RLU | 0.97 fold | B7
10 | 2210 RLU | 0.99 fold | B8
11 | 2250 RLU | 1.01 fold | B9
